Where “and” joins values, the source holds several entries; their conditions need not be identical. Equal entries are not always repeated.

Experiment [1] concerns transplanted tumour from spontaneous tumour of neu protein over-expressed FVB/N transgenic mice. Briefly: Anti-tumor effect of rhErbB3-f78 (Table 5). In kind it is in vivo. An excerpt:
(§1) Transplanted tumour model, after immunohistological screening test, about 1000 mm^3 tumour mass was cut down from spontaneous tumour of neu protein over-expressed FVB/N transgenic mice. The tumour mass was abraded into single cells with nylon net, the amount injected under the breast of each FVB/N transgenic mice was 5×10^6 cells.
(§2) Experiment on the therapeutic effect of various dosage of DE3-1 rhErbB3412 and rhErbB3-f78 on immune therapy against tumor.
(§3) Preparing animal and transplanted animal tumor model: The same as (Experiment on therapeutic effect of B3 and DE3-1 rhErbB3-f12 and rhErbB3-f78 vaccine on immune therapy against tumor). No treatment was given to the control group, histag protein was injected to the negative control group, and Adriamycin (Santou MingZhi Pharmaceuticals) was administered for the positive control group, 5 μg, 20 μg and 80 μg was given to DE3-1 group respectively.
(§4) Tumor weight was measured after completion of the experiment and tumor-inhibitory rate was calculated, tumor inhibitory rate=[(tumor weight of control group−tumor weight of experiment groups)/tumor weight of control group]×100.

For experiment [2] the test system is unchanged. Briefly: Therapeutic effect of various dosage of DE3-1 in transplanted tumour model (Table 3). The experiment is classed as in vivo.
From the text: as §1, §3
One day after the inoculation, Adriamycin 2.2 mg/kg was injected abdominally for consecutive 7 days in mice of the positive control group; histag protein+Al(OH)^3 was injected abdominally for mice of the negative control group; In DE3-1 group, the vaccine was absorbed on 0.1 mg of Al(OH)^3 and multi-points subcutaneous injection every 2 weeks for a total of 3 injections were carried out in mice. The experiment completed in 14 days after the third injection. Tumor development was monitored weekly, tumor size was measured with vernier and the size was expressed as (length diameter×short diameter 2/2), curve of tumor growth was protracted and analyzed statistically.
as §4

Experiment [3] has the same test system. Briefly: Anti-tumor effect of rhErbB3-f12 (Table 4). The experiment is classed as in vivo.
From the text: as §1, §2, §3, §4

For experiment [4], the system named is B2 and B3 antigen. The experiment is described as follows: Cross immunity of B2 and B3 antigen (ELISA antibody titer). To be noted: serum of immunized FVB transgenic mice, ELISA on wrapped B2 or B3 protein, 450 nm. How it is done:
FVB transgenic mice were immuned with B2 protein and B3 protein respectively, 10 days thereafter, blood was withdrawn and antibody titer was tested with ELISA. 0.3 μg/hole of B2 and B3 was wrapped, 1:1000 B2 and B3 on each plate were titrated with standard serum respectively, cultured at 37° C. for 30 minutes, sealed with 1% BSA, added double antibody, color development for 15 minutes with DAD, tested with Bio-Rad 450 nm enzyme labeled device.
A general note: An ELISA detects its analyte on a solid surface through an enzyme-linked reagent.

The subject of experiment [5] is tumor development in FVB/N transgenic mice (neu protein over-expression, spontaneous breast cancer). The experiment is described as follows: Preventive effect of B3, DE3-1 on tumor development. The experiment is classed as in vivo. To be noted: for Incidence of tumor growth / Time of tumor occurrence: injected abdominally every 20 days, 7 injections, 40 mice; for Tumor-inhibitory effect against the development of tumor, incidence versus negative control group: ×2 testing versus BSA + CFA control. As to the method:
8-10 weeks old FVB/N transgenic mice (bought from Jackson Lab USA) was selected as experiment animals, the mice were divided into 5 groups with 40 mice each, they were control group, B2, B3 and DE3-1 group; BSA, B2, SD32, B3, DE3-1 was mixed with Freud's adjuvant (CFA, complete Freud's adjuvant, bought from Sigma company) and injected abdominally every 20 days for 7 injections respectively to various groups. The dosage of BSA, B2, SD32, B3 and DE3-1 vaccine was 10, 5, 10, 1 and 10 μg/mouse/injection. Weekly monitor tumour development. The tumour development was verified and analysed statistically.
Objective of the present experiment is to explore whether there is preventive effect of B3 or DE3-1 vaccine on tumor development. The reason to choose this type of transgenic mice as experiment animal model, is because rat wild type neu cDNA controlled by mice breast virus promotor was transferred into the body of mice and produce over-expression of neu protein and spontaneous breast cancer occurred within 5-8 months in half of the mice. Natural course of tumor in the transgenic mice and its pathologic pattern is similar to that of human breast cancer. Therefore, it may have better therapeutic effect when used clinically. The sample contains 40 animals in each group, the aim of selecting such large sample is to ensure the number of cases which have the disorders will be greater than 10 animals, thus will be of greater implication statistically. The selection of dosage is based on the results of pre-experiments.

The subject of experiment [6] is transplanted tumour from spontaneous tumour of neu protein over-expressed FVB/N transgenic mice. The experiment is described as follows: Therapeutic effect of B3 vaccine in transplanted tumour model (Table 2). In kind it is in vivo. As to the method:
as §1
Nothing was administrated in the control group; 24 hours after the inoculation, SD32 and B3 vaccine injection started in SD32 and B3 experiment groups, the aforementioned vaccines were absorbed on 0.1 mg/ml of Al(OH)3 respectively, and injected multi-pointedly every 2 weeks for a total of three injections; the experiment was completed in 14 days after the third injection. Morbidity was monitored weekly, tumor size was measured weekly with vernier. Volume (length diameter×short diameter 2/2) of the tumor was used to represent their size, and curve of tumor growth was protracted,
Tumor weight was measured after completion of the experiment and tumor-inhibitory rate was calculated, inhibitory rate=[(tumor weight of control group−tumor weight of experiment groups)/tumor weight of control group]×100.

The mark [7] stands for this setting: ADR 2.2 mg/kg injected abdominally for consecutive 7 days.
Where [8] appears, read: 5 μg + Al(OH)3, subcutaneous every 2 weeks, 3 injections.
[9] abbreviates: 20 μg + Al(OH)3, subcutaneous every 2 weeks, 3 injections.
[10] abbreviates: 80 μg + Al(OH)3, subcutaneous every 2 weeks, 3 injections.

For `COc1cccc2c1C(=O)c1c(O)c3c(c(O)c1C2=O)C[C@@](O)(C(=O)CO)C[C@@H]3O[C@H]1C[C@H](N)[C@H](O)[C@H](C)O1` [ADR, Adriamycin, reference compound], in experiment [1] (2 mg/kg, ip X 7 qd), the Inhibitory rate was 40.98% and the Tumor weight turned out to be 0.648 ± 0.27 g. In experiment [2] (setting [7]), this molecule registered an Inhibitory rate of 25.3%, a Tumor size of 4603.1 ± 478.3 mm3 and a Tumor weight of 3.564 ± 0.42 g.
As for `CC(=O)O[C@H]1C(=O)[C@@]2(C)[C@H]([C@H](OC(=O)c3ccccc3)[C@]3(O)C[C@H](OC(=O)[C@H](O)[C@@H](NC(=O)c4ccccc4)c4ccccc4)C(C)=C1C3(C)C)[C@]1(OC(C)=O)CO[C@@H]1C[C@@H]2O` [Taxol, reference compound], in experiment [3] (10 mg/kg, ip X 7 qd), the Inhibitory rate was found to be 44.32% and the Tumor weight is recorded as 3.09 ± 1.08 g.
Turning to “B3: protein of ErbB3 extra-cell membrane region (SEQ ID NO:2), flag-tagged, expressed by eucaryotic cells; anti-tumor vaccine”, the “Cross immunity between B2 and B3 antigen” value in experiment [4] is given as “there isn't any cross immunity”. Further, in experiment [5] (5 μg/animal/dose + CFA), the “Incidence of tumor growth” value came to 12.5%; the “Time of tumor occurrence” value is 22 weeks and 20 weeks. For the same molecule, the “Tumor-inhibitory effect against the development of tumor, incidence versus negative control group” value in experiment [5] was “significant tumor-inhibitory effect”. In addition, the “Tumor-inhibitory effect (significance)” value in experiment [6] (t testing, P<0.01) is recorded as “significant tumor-inhibitory effect”. Besides, the Inhibitory rate in experiment [6] (vaccine + Al(OH)3, every 2 weeks, three injections) is 33%. In addition, the Tumor size in experiment [6] (vaccine + Al(OH)3, every 2 weeks, three injections, 5 weeks) was 5271.8 ± 658.9 mm3. Further, the Tumor weight in experiment [6] (vaccine + Al(OH)3, every 2 weeks, three injections, at completion of experiment) was 3.13 ± 0.33 g.

B1: rhErbB3-f12: protein segment of ErbB3 extra-cell membrane region (SEQ ID NO:14) expressed by E. coli (protein, listed as Homo sapiens)
chain: MKYLLPTAAAGLLLLAAQPAMAMDIKHNRPRRDCVAEGKVCDPLCSSGGCWGPGPGQCLSCRNYSRGGVCVTHCNFLNGEPLEHHHHHH
As to B1, the Inhibitory rate is listed as 58.39% in experiment [3] (0.25 mg/kg, sc X 3 q14d); 52.61% in experiment [3] (0.5 mg/kg, sc X 3 q14d); 56.76% in experiment [3] (1 mg/kg, sc X 3 q14d). The Tumor weight in experiment [3] (0.25 mg/kg, sc X 3 q14d) stood at 2.31 ± 0.40 g; in experiment [3] (0.5 mg/kg, sc X 3 q14d), 2.62 ± 0.67 g; in experiment [3] (1 mg/kg, sc X 3 q14d) it was 2.40 ± 0.49 g.

B2: rhErbB3-f78: ErbB3 extra-cell membrane protein segment (SEQ ID NO:16) expressed by E. coli (protein, listed as Homo sapiens)
chain: MVCVASCPHNFVVDQTSCVRACPPDKMEVDKNGLKMCEPCGGLCPKACEGTGSGSRFQTVDSSNIDGFVNCTKILGNLDFLITGLNGDPWHKIPALDPEKLNVFRTVREITGYLNIQSWPPHMHNFSVFSNLTTIGGRSKLAAALEHHHHHH
As to B2, in experiment [1] (2.5 mg/kg, sc X 3 q14d), the Inhibitory rate was 60.38% and the Tumor weight is reported as 0.435 ± 0.12 g.

B3: DE3-1: extra-cell membrane ErbB3 protein segment (SEQ ID NO:3) expressed by E. coli, N end fused with Trx Tag, His Tag and S-Tag (protein, listed as Homo sapiens)
chain: MRANDALQVLGLLFSLARGSEVGNSQAVCPGTLNGLSVTGDAENQYQTLYKLYERCEVVMGNLEIVLTGHNADLSFLQWIREVTGYVLVAMNEFSTLPLPNLRVVRGTQVYDGKFAIFVMLNYNTNSSHALRQLRLTQLTEILSGGVYIEKNDKLCHMDTIDWRDIVRDRDAEIVVKDNGRSCPPCHEVC
modifications: N-terminal Trx, His, S tags
For B3, in experiment [2] (setting [8]), the Inhibitory rate stood at 22.4%, the Tumor size was determined as 5563.7 ± 600.6 mm3 and the Tumor weight amounted to 3.687 ± 0.45 g. In experiment [2] (setting [9]), the Tumor size is 4715.0 ± 434.8 mm3 and the Tumor weight amounted to 3.455 ± 0.41 g. In experiment [2] (setting [10]), the Inhibitory rate was 26.3%, the Tumor size is 4810.8 ± 460.5 mm3 and the Tumor weight was found to be 3.658 ± 0.37 g. In addition, in experiment [5] (10 μg/animal/dose + CFA), the “Incidence of tumor growth” value is listed as 35% and the “Time of tumor occurrence” value amounted to 23 weeks. Besides, the “Tumor-inhibitory effect against the development of tumor, incidence versus negative control group” value in experiment [5] was “not significantly different”.

Source of the values: patent US20110229478A1, “ERBB3 BASED METHODS AND COMPOSITIONS FOR TREATING NEOPLASMS” (ZENSUN (SHANGHAI) SCIENCE & TECHNOLOGY LIMITED, priority 2002, published 2011).
